According to patent US20140065154A1, “TLR3 BINDING AGENTS” (INNATE PHARMA, priority 2011, published 2014):
“Also recorded” adds a separate entry of the source. Blank lines part the entries; values can stand above or below the molecule they belong to.

Legend:
[1] = molecular target: T1, recombinant human TLR3 extracellular domain (R&D Systems) (human, UniProt O15455 27-711); experiment: SPR (Biacore T100), rhTLR3 immobilised on CM5 chip, bivalent affinity, pH 5.6, mean of 2 or 3 experiments
T1 construct: also called rhTLR3; human rec TLR3; not shown: His tag (R&D #1487-TR)

[2] = molecular target: T1, recombinant human TLR3 extracellular …; experiment: SPR (Biacore T100), rhTLR3 immobilised on CM5 chip, bivalent affinity, pH 7.2, mean of 2 or 3 experiments
Procedure: (a) General Biacore T100 methods. SPR measurements were performed on a Biacore T100 apparatus (Biacore GE Healthcare) at 25° C. In all Biacore experiments HBS-EP+ buffer (Biacore GE Healthcare) or 10 mM sodium acetate pH 5.6, 150 mM NaCl, 0.05% P20 served as running buffer and sensorgrams were analyzed with Biaevaluation 4.1 and Biacore T100 Evaluation software. Recombinant human and mouse TLR3 were purchased from R&D Systems. (b) Protein immobilization. Recombinant TLR3 protein was immobilized covalently to carboxyl groups in the dextran layer of a Biacore Series 5 Sensor Chip CM5 (chip). The chip surface was activated with EDC/NHS (0.2M N-ethyl-N′-(3-dimethylaminopropyl) carbodiimidehydrochloride, 0.05M N-hydroxysuccinimide (Biacore GE Healthcare)). […] Deactivation of the remaining activated groups was performed using 100 mM ethanolamine pH 8 (Biacore GE Healthcare). (c) Antibody binding analysis was run using HBS-EP+ (neutral pH). Antibodies at a concentration of 10 μg/ml were injected for 2 min at a constant flow rate of 10 μl/min over the immobilized proteins and allowed to dissociate for 3 min before regeneration by a ten second injection of 10 mM NaOH, 500 mM NaCl regeneration buffer. Blank correction was performed on line by co-injecting the soluble antibodies onto the reference dextran flow cell. (d) Competition assay in acidic buffer (pH 5.6). […]

TLR3 [3] = molecular target: T2, TLR3 (Homo sapiens, UniProt O15455); experiment: Myeloid DC (MdDC) secretion and expression inhibition test; format: cell-based; set-up: Myeloid DC (MdDC) were obtained from PBMC by isolating PBMC from normal healthy human donors; endogenous in cells; host or cells: human monocyte-derived DC (CD14+ monocytes cultured with GM-CSF and IL-4); settings: polyAU
Procedure: Myeloid DC (MdDC) were obtained from PBMC by isolating PBMC from normal healthy human donors. Monocytes were purified from PBMC using positive selection with human CD14 microbeads (Miltenyi Biotech) following general instructions. Monocytes were further derived into DC (MdDC) by 5-6 days incubation in human GM-CSF (Leucomax, SP) and human IL-4 (R&D Systems) at respectively 200 ng/ml and 20 ng/ml.
The resulting MdDC were then seeded at 10^6 cells/ml, in duplicate, in flat bottom 96-well plates. Cells were activated for 20 hours in a final volume of 200 μl, together with the anti-TLR3 antibodies at the indicated concentrations. Increasing amounts of polyAU were added to the wells to obtain a dose effect read-out at the dose and timepoint as indicated.
Supernatants were collected after 20 h of stimulation, frozen at −20° C., and further assayed for IL-6 and IP-10 using Enzyme-linked immunosorbent assay. Cells were then harvested, stained for activation markers CD86 (with a.huCD86 mouse, IgG1, FITC, BD Biosciences, ref 555657), with detection using FACSCanto™ flow cytometer (BD Biosciences).
Myeloid DC (MdDC) secretion inhibition test is performed according to the section titled Materials and Methods.

TLR3 [4] = molecular target: T2, TLR3; experiment: SPR (Biacore) bivalent affinity on immobilized TLR3; format: binding; set-up: purchased R&D Systems; settings: neutral pH; own vs commercially available antibodies
Procedure: (a) General Biacore T100 methods. SPR measurements were performed on a Biacore T100 apparatus (Biacore GE Healthcare) at 25° C. In all Biacore experiments HBS-EP+ buffer (Biacore GE Healthcare) or 10 mM sodium acetate pH 5.6, 150 mM NaCl, 0.05% P20 served as running buffer and sensorgrams were analyzed with Biaevaluation 4.1 and Biacore T100 Evaluation software. Recombinant human and mouse TLR3 were purchased from R&D Systems. (b) Protein immobilization. Recombinant TLR3 protein was immobilized covalently to carboxyl groups in the dextran layer of a Biacore Series 5 Sensor Chip CM5 (chip). The chip surface was activated with EDC/NHS (0.2M N-ethyl-N′-(3-dimethylaminopropyl) carbodiimidehydrochloride, 0.05M N-hydroxysuccinimide (Biacore GE Healthcare)). […] Deactivation of the remaining activated groups was performed using 100 mM ethanolamine pH 8 (Biacore GE Healthcare). (c) Antibody binding analysis was run using HBS-EP+ (neutral pH). Antibodies at a concentration of 10 μg/ml were injected for 2 min at a constant flow rate of 10 μl/min over the immobilized proteins and allowed to dissociate for 3 min before regeneration by a ten second injection of 10 mM NaOH, 500 mM NaCl regeneration buffer. […]
Binding to TLR3 was determined at neutral (pH 7.2) and acid (pH 5.6) conditions, and KD values were calculated. […]

TLR3 [5] = molecular target: T2, TLR3; experiment: SPR competition assay with polyAU in acidic buffer; format: binding; set-up: purchased R&D Systems; settings: pH 5.6
Procedure: (a) General Biacore T100 methods. SPR measurements were performed on a Biacore T100 apparatus (Biacore GE Healthcare) at 25° C. In all Biacore experiments HBS-EP+ buffer (Biacore GE Healthcare) or 10 mM sodium acetate pH 5.6, 150 mM NaCl, 0.05% P20 served as running buffer and sensorgrams were analyzed with Biaevaluation 4.1 and Biacore T100 Evaluation software. Recombinant human and mouse TLR3 were purchased from R&D Systems. (b) Protein immobilization. Recombinant TLR3 protein was immobilized covalently to carboxyl groups in the dextran layer of a Biacore Series 5 Sensor Chip CM5 (chip). The chip surface was activated with EDC/NHS (0.2M N-ethyl-N′-(3-dimethylaminopropyl) carbodiimidehydrochloride, 0.05M N-hydroxysuccinimide (Biacore GE Healthcare)). […] Deactivation of the remaining activated groups was performed using 100 mM ethanolamine pH 8 (Biacore GE Healthcare). (c) Antibody binding analysis was run using HBS-EP+ (neutral pH). Antibodies at a concentration of 10 μg/ml were injected for 2 min at a constant flow rate of 10 μl/min over the immobilized proteins and allowed to dissociate for 3 min before regeneration by a ten second injection of 10 mM NaOH, 500 mM NaCl regeneration buffer. Blank correction was performed on line by co-injecting the soluble antibodies onto the reference dextran flow cell. (d) Competition assay in acidic buffer (pH 5.6). Flow rate was set to 10 μl/min, the first antibody at a concentration of 50 μg/ml (or polyAU at 100 μg/ml) was injected for 2 min, 3 times successively in order to saturate the rhTLR3 surface. The second antibody (or polyAU at 100 μg/ml when the polyAU was added after first antibody) was then injected for 2 min also at 50 μg/ml and allowed to dissociate for 3 min before regeneration by a 15 second injection of 10 mM NaOH, 500 mM NaCl regeneration buffer. Blank correction was also performed on line and the curve using the saturating antibody (or neucleic acid) followed by an injection of buffer subtracted to remove the signal due to the dissociation of the first complex. The resulting signal was compared to that obtained by the injection of the second antibody directly onto the rhTLR3 surface.
Competition assays were conducted according to the methods described for SPR, item d) at pH 5.6.
Buffer (followed by polyAU) is represented in the lower line, while 31C3 followed by polyAU is in the upper line.

TLR3 [6] = molecular target: T2, TLR3; experiment: IP-10 production by donor PBMC in response to dsRNA and drug combinations; format: cell-based; settings: mAb 50 μg/ml
Procedure: IP-10 production was assessed in human donors in response to polyAU (IPH3102), believed to be a specific agonist of TLR3, or pIC, believed to be an agonist of TLR3 as well as other dsRNA receptors such as RIG-I and MDA-5. Fresh PBMC were isolated from whole blood of two independent donors. […] Cells were incubated 1 hr at 37° C. prior addition of 300 μg/ml IPH3102 or 30 μg/ml poly(I:C). Cells were incubated for 24 additional hours at 37° C. Supernatant were then harvested to quantify IP10 production by ELISA. Cells were then recovered, stained with 7-AAD and analyzed by flow cytometry (FACS) to evaluate potential toxic effects of any drugs.

TLR3 [7] = molecular target: T2, TLR3; experiment: 293T-TLR3-ISRE luciferase reporter gene assay; format: cell-based; set-up: host or cells: 293T (ATCC #CRL-1573), stably carrying pISRE-luc; settings: dsRNA TLR3 agonist
Source text: A reporter gene assay using as promoter ISRE (IFN-stimulated response element) and as reporter gene and protein luciferase was set up. A 293T cell line (ATCC, #CRL-1573) was stably transfected with pISRE-luc plasmid (#219089—Stratagene), further selected by cloning as inducing optimal response to IFN-alpha stimulation and referred to as control 293T-ISRE. This cell line was further stably transfected with pUNO-humanTLR3 plasmid (#puno-htlr3—InVivogen) or pUNO-mouseTLR3 plasmid (#puno-mtlr3—InVivogen) and referred to as 293T-TLR3-ISRE and 293T-mTLR3-ISRE respectively. On day 0, cells are seeded at 4×10^5 cells/mL in complete culture medium in 96-well culture plate (100 μl/well). Cells are first incubated at 37° C. for 20 hours, then 50 μL of medium are discarded and cells are activated with 100 μL/well final of increasing amounts of polyAU together with various concentrations of anti-TLR3 antibodies. Cells incubated with fresh medium will be used as background luciferase activity. Cells are incubated at 37° C. for 6 hours. 100 μL of freshly thawed Steady Glo (Promega) are added to each well, plates were incubated 10 min at RT in the dark and the light emitted in each well is quantified as Count Per Second (CPS) on a gamma-counter (TopCount) apparatus.
Antibodies were tested for inhibition of TLR3 signaling in a luciferase based reporter gene activity (293T-TLR3-ISRE). […] Briefly, dsRNA TLR3 agonists were used to induce TLR3 signaling in the reporter assay in the presence of anti-TLR3 antibodies, and TLR3 signaling was assessed.
In a further set of experiments, 293-huTLR3 cells were incubated with different concentrations of the anti-TLR3 mAbs for 1 to 2 hours (see FIG. 1A; mAb concentration is represented in axis in μg/ml on a logarithmic scale) followed by the addition to the medium of the TLR3 agonist polyAU at a concentration of 300 μg/ml. Luciferase expression was measured after 6 h. […]
Similarly the kinetics of inhibition of the antibodies was evaluated in 293T-TLR3 luciferase assay. […] Luciferase expression was measured at 6 h post poly(A:U) addition. […]

- Kd [1]: 11 pM
- Kd [2]: 47.4 pM
B1: antibody 29H3 (antibody, V domains shown)
VH: DVQLQESGPDLVKPSQSLSLTCTVTGYSITSGYSWHWIRQFLGNKLEWMGYIHYSGITNYNPSLRSRISFTRDTSKNQFFLQLNSVTTEDTATYYCARDGYYGMDYWGQGTSVTVS
VL: DIVMTQSQKFMSTSVGDRVSITCKASQNVRTSVAWYQQKPGQSPKALIYLASNRHTGVPDRFTGSGSGTDFTLTVSNIQSEDLADYFCLQHWNYPYTFGGGTKLEIK
notes: also called 29H3.7; CNCM I-4187
- TLR3-mediated CD83/CD86 expression (TLR3 [3]): effectively downregulated TLR3-mediated CD83/CD86 expression
- TLR3-mediated cytokine/chemokine secretion (IP-10, IL-6) (TLR3 [3]): abrogated TLR3-mediated cytokine/chemokine secretion, to a similar extent as full length antibodies

- binding affinity for TLR3 compared (TLR3 [4]): significantly better
B2: 29H3: anti-human TLR3 monoclonal antibody, IgG1; VH SEQ ID NO: 10, VL SEQ ID NO: 11; CNCM I-4187 (antibody, listed as Mus musculus, V domains shown)
VH: MRVLILLCLFTAFPGILSDVQLQESGPDLVKPSQSLSLTCTVTGYSITSGYSWHWIRQFLGNKLEWMGYIHYSGITNYNPSLRSRISFTRDTSKNQFFLQLNSVTTEDTATYYCARDGYYGMDYWGQGTSVTVS
VL: MDFQTQVFVFVLLWLSGVDGDIVMTQSQKFMSTSVGDRVSITCKASQNVRTSVAWYQQKPGQSPKALIYLASNRHTGVPDRFTGSGSGTDFTLTVSNIQSEDLADYFCLQHWNYPYTFGGGTKLEIK
modifications: SIGNAL (1)..(18); SIGNAL (1)..(20)
notes: anti-human TLR3 monoclonal antibody, IgG1; CNCM I-4187
- antibody binding to TLR3 chip previously incubated with polyAU (TLR3 [5]): able to bind TLR3 even in the presence of polyAU
- TLR3-mediated CD83/CD86 expression (TLR3 [3]): effectively downregulated TLR3-mediated CD83/CD86 expression
- TLR3-mediated cytokine/chemokine secretion (IP-10, IL-6) (TLR3 [3]): abrogated TLR3-mediated cytokine/chemokine secretion

- IP-10 production in response to polyAU (TLR3 [6]; donor 2, IPH3102 300 μg/ml): substantially reduce IP-10 production
- IP-10 production in response to polyIC (TLR3 [6]; donors 1 and 2, poly(I:C) 30 μg/ml): substantially reduce IP-10 production
B3: 34A3: anti-human TLR3 monoclonal antibody; VH SEQ ID NO: 34, VL SEQ ID NO: 35 (antibody, listed as Mus musculus, V domains shown)
VH: MEWRWIFLFLLSGTTGVHSEIQLQQSGPELVKPGASVKVSCKASGYVFTTYSIYWVKQSHGKSLEWIGYIDPYNGDTSYNQKFKGKATLTVDKSSSTAYMHLNSLTSEDSTVYYCAREGNYYGYFDYWGQGTTLTVS
VL: MDFQVQIFSFLLMSASVIMSRGQIVLTQSPALMSASPGEKVTMTCSASSSVSYMFWYQQKPRSSPKPWIYLTSNLASGVPARFSGSGSGTSYSLTISSMEAEDAATYYCQQWTGNPPTFGGGTKLEIK
modifications: SIGNAL (1)..(19); SIGNAL (1)..(22)
- antibody binding to TLR3 chip previously incubated with polyAU (TLR3 [5]): able to bind TLR3 even in the presence of polyAU
- inhibition of TLR3 signaling (TLR3 [7]): strongly inhibited TLR3 signaling in a dose dependent fashion; also recorded: enhanced inhibition effect at low concentrations
